# In US20150307625A1 (Bayer, published 2015):
# Positions count from the first letter of the chain named.
# T1: dog activated Protein C (dog, UniProt Q28278 43-456)
# T1 sequence (looked up): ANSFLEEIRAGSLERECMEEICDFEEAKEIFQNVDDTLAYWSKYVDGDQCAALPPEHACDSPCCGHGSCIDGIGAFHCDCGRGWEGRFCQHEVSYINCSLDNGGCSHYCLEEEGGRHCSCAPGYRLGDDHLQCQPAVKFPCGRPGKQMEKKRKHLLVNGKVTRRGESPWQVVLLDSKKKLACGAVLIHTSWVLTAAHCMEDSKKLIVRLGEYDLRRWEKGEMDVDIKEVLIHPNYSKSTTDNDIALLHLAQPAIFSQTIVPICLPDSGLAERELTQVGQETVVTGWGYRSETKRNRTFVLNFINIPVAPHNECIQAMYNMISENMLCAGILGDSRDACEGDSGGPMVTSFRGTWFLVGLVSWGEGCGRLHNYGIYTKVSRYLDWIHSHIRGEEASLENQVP
# T2: dog Protein C (zymogen) (dog, UniProt Q28278 43-456)
# T2 construct: mature; also called dog PC
# T2 sequence (looked up): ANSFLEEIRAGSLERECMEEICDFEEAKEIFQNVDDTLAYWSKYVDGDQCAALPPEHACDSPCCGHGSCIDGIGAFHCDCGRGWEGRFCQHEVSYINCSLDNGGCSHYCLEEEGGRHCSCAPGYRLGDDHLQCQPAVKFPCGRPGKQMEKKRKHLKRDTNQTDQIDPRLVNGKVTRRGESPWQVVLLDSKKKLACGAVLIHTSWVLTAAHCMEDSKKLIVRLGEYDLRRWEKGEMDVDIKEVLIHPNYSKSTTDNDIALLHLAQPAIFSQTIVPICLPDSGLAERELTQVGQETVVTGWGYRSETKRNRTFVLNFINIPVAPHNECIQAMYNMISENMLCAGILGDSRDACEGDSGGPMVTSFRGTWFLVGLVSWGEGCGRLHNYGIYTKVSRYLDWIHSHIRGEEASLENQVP
# T3: mouse Protein C (zymogen) (mouse, UniProt P33587 42-460)
# T3 construct: mature; also called mouse PC
# T3 sequence (looked up): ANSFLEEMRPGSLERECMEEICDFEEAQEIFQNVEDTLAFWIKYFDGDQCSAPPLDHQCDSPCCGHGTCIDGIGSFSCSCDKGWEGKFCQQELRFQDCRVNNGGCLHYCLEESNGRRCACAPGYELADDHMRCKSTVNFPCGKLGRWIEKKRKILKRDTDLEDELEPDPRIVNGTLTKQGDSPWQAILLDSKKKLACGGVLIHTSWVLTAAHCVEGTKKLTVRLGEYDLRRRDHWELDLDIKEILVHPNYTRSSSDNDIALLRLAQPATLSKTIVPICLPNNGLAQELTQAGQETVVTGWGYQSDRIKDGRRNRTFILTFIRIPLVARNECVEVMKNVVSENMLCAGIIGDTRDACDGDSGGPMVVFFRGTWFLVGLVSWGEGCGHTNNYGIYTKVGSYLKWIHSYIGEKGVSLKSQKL
# B1: C22J13 hIgG1 (antibody, V domains shown)
# VH: EVQLLESGGGLVQPGGSLRLSCAASGFTFSSNYMSWVRQAPGKGLEWVAVISYDGSNKYYADSVKGRFTISRDNSKNTLYLQMNSLRAEDTAMYYCALTGRSGWMRFPNWFDPWGQGTLVTVTS
# VL: QSVLTQPPSASGTPGQRVTISCSGSDSNIGSNAVNWYQQLPGTAPKLLIYDNNKRPSGVPDRFSGSKSGTSASLAISGLRSEDEADYYCSSYTSSNTVVFGGGTKLTVLG
# B2: C7A23 hIgG1 (antibody, V domains shown)
# VH: EVQLLESGGGLVQPGGSLRLSCAASGFTFGNHWMTWVRQAPGKGLEWVSGVSWNGSRTHYADSVKGRFTISRDNSKNTLYLQMNSLRAEDTAVYYCALTGRSGWMRFPNWFDPWGQGTLVTVTS
# VL: QSVLTQPPSASGTPGQRVTISCSGSSSNIGNNYVSWYQQLPGTAPKLLIYRNNQRPSGVPDRFSGSKSGTSASLAISGLRSEDEADYYCQSYDSDLSGPYVLFGGGTKLTVLG
# notes: also called C7A23-IgG
# B3: C7I7 Fab (Fab, V domains shown)
# VH: B2 VH
# VL: QSVLTQPPSASGTPGQRVTISCTGSSSNIGAGYDVHWYQQLPGTAPKLLIYGNSNRPSGVPDRFSGSKSGTSASLAISGLRSEDEAAYYCSSYVGSDLVVFGGGTKLTVLG
# notes: Human Fab (lambda) from a phage library, expressed in E. coli; also called C717
# B4: C7I7 hIgG1 (antibody, V domains shown)
# VH: B2 VH
# VL: B3 VL
# notes: also called C717-IgG
# B5: C25K23 Fab (Fab, V domains shown)
# VH: B2 VH with G30S, N31S, H32Y, T35S
# VL: QSVLTQPPSASGTPGQRVTISCTGSSSNIGAAYDVHWYQQLPGTAPKLLIYGNNKRPSGVPDRFSGSKSGTSASLAISGLRSEDEADYYCQSYDSSLSGSVFGGGTKLTVLG
# notes: Human Fab (lambda) from a phage library, expressed in E. coli; also called Fab C25K23
# B6: C25K23 IgG1 (antibody, V domains shown)
# VH: B2 VH with G30S, N31S, H32Y, T35S, T123S
# VL: B5 VL
# notes: the claims call them variable regions; also called C25K23 hIgG; C25K23 hIgG1
# B7: Variant 2312 (modified C25K23 IgG) (antibody, V domains shown)
# VH: B2 VH with G30S, N31S, H32Y, T35S, S56A, T123S
# VL: B5 VL with A10V, T13A, S78T, R81Q, S82A
# Assays:
# [1] = target: T4, human activated Protein C (human, UniProt P04070 43-461); assay: cell-based or functional assay
# [2] = target: rabbit activated Protein C (rabbit) (UniProt Q28661); assay: ELISA, hIgG1
# [3] = target: T4, human activated Protein C; assay: direct ELISA, aPC coated, hIgG1
# [4] = target: rabbit activated Protein C (rabbit) (UniProt Q28661); assay: cell-based or functional assay
# [5] = target: T4, human activated Protein C; assay: ELISA, hIgG1
# [6] = target: rabbit activated Protein C (rabbit) (UniProt Q28661); assay: direct ELISA, aPC coated, hIgG1
# dog activated Protein C [7] = target: T1, dog activated Protein C; assay: cell-based or functional assay
# dog Protein C (zymogen) [8] = target: T2, dog Protein C (zymogen); assay: direct ELISA, antigen coated
# dog activated Protein C [9] = target: T1, dog activated Protein C; assay: direct ELISA, aPC coated, hIgG1
# dog activated Protein C [10] = target: T1, dog activated Protein C; assay: ELISA, hIgG1
# dog Protein C (zymogen) [11] = target: T2, dog Protein C (zymogen); assay: direct ELISA, dPC coated at 10 ug/ml, Fab at 20 nM, anti-human Fab-HRP, AmplexRed (RFU)
# Method: (§1) To determine the binding selectivity of these fabs, their binding activities to the proenzyme human PC, to thrombin (FIIa), and to the activated Factor II (FIIa, thrombin), Factor VII (FVIIa), Factor IX (FIXa), and Factor X (FXa) were also assessed by ELISA. Briefly, an ELISA plate was coated with human aPC at 1 ug/ml, mouse PC at 10 ug/ml, dog PC at 10 ug/ml, other coagulation factors (FIIa, FVIIa, FIXa, FXa) at 5-10 ug/ml. Anti-aPC Fabs were added to the wells at 20 nM (1 ug/ml). Bound Fabs were detected by the secondary antibody (anti-human Fab-HRP) followed by HRP substrate AmplexRed.
# dog activated Protein C [12] = target: T1, dog activated Protein C; assay: direct ELISA, antigen coated, Fab
# [13] = target: T4, human activated Protein C; assay: direct ELISA, antigen coated, Fab
# [14] = target: T3, mouse Protein C (zymogen); assay: direct ELISA, mPC coated at 10 ug/ml, Fab at 20 nM, anti-human Fab-HRP, AmplexRed (RFU)
# Method: as §1
# [15] = target: T5, human Protein C (zymogen) (human, UniProt P04070 43-461); assay: direct ELISA, antigen coated at 100 ng/well, Fab at 20 nM (1 ug/ml), anti-human Fab-HRP, AmplexRed (RFU)
# T5 construct: also called human PC; hPC
# Method: FIG. 3 depicts a graph characterizing anti-APC Fabs by direct ELISA. An ELISA plate was coated with human PC (hPC), human aPC (hAPC), dog aPC (dAPC), mouse aPC (mAPC) at 100 ng per well. Purified Fabs designate on the X-axis were added to the plate at 20 nM (1 ug/ml). Bound Fab was detected by the secondary antibody (anti-human Fab-HRP) followed by HRP substrate AmplexRed. The purified Fabs preferentially bind to human aPC and, with the exception of Fab R41C17, show little to no binding to human PC.
# Antigens were coated directly on ELISA plates. Coating antigens included human PC (plasma-derived), human aPC (recombinant), dog aPC (plasma-derived), and mouse aPC (recombinant) at 100 ng/well in PBS/Ca buffer. After blocking the plate with 5% milk/PBS and washing the plate with PBS-Tween20, soluble Fabs (1 ug/ml, 20 nM) were added to the plate and incubated for 1 h at RT with shaking. Fab binding was detected with anti-human Fab (lambda) antibody-HRP and Amplex red as substrate. […] In contrast, R41C17 binds to both human APC and human PC. Also shown in FIG. 3 is cross-species reactivity of Fabs by ELISA.
# dog activated Protein C [16] = target: T1, dog activated Protein C; assay: Biacore, Fab
# [17] = target: T4, human activated Protein C; assay: Biacore, Fab
# [18] = target: T4, human activated Protein C; assay: cell-based or functional assay; remark: listed apart in the source
# [19] = target: T5, human Protein C (zymogen); assay: direct ELISA, antigen coated at 1 ug/ml, IgG at 20 nM, anti-human IgG-HRP, AmplexRed (RFU)
# [20] = target: T4, human activated Protein C; assay: cell-based or functional assay; remark: listed apart in the source
Binder,"Anti-aPC IC50 (nM), Amidolytic activity [1]",EC50 [2],EC50 [3],"Anti-aPC IC50 (nM), Amidolytic activity [4]",EC50 [5],EC50 [6],"Anti-aPC IC50 (nM), Amidolytic activity (dog activated Protein C [7])",binding result (dog Protein C (zymogen) [8]),EC50 (dog activated Protein C [9]),EC50 (dog activated Protein C [10]),also measured
B1,27 nM,0.6 nM,0.49 nM,24 nM,0.5 nM,0.6 nM,,,,,
B2,,7 nM,,25 nM,,7 nM,49 nM,no binding,10.9 nM,10.9 nM,
B3,,,,,,,,,,,binding result (dog Protein C (zymogen) [11]): no binding (tested: 20 nM); EC50 (dog activated Protein C [12]): 3.9 nM; EC50 [13]: 6.3 nM; binding result [14]: no binding (tested: 20 nM); binding result [15]: no binding (tested: 20 nM); Kd (dog activated Protein C [16]): 1.3 nM; Kd [17]: 1.3 nM
B4,64 nM,2 nM,2.66 nM,29 nM,2.7 nM,2 nM,147 nM,no binding,2.3 nM,2.3 nM,"aPTT, inhibition of aPC activity at 1 ug/ml IgG (1:1 molar ratio) [18]: ~50%; binding result [19]: no binding (tested: 20 nM)"
B5,,,,,,,,,,,binding result (dog Protein C (zymogen) [11]): no binding (tested: 20 nM); EC50 (dog activated Protein C [12]): 8.2 nM; EC50 [13]: 4.3 nM; binding result [14]: no binding (tested: 20 nM); binding result [15]: no binding (tested: 20 nM); Kd (dog activated Protein C [16]): 5.2 nM; Kd [17]: 2 nM
B6,131 nM,,1.25 nM,,1.2 nM,,692 nM,no binding,3.4 nM,3.4 nM,binding result [19]: no binding (tested: 20 nM)
B7,,,,,,,,,,,"IC50 (read off the curve), amidolytic activity of human aPC [b] [20]: ~10 nM"
